± gives the uncertainty stated by the source.

This data set can be described thus: abundance fitness (aPCA) (normalised: wild type 0, dead -1); higher = more abundant; growth selection in yeast, the domain comes from the species named. The conditions noted are these: Homo sapiens.
For “Lipoamide acyltransferase component of branched-chain alpha-keto acid dehydrogenase complex, mitochondrial E190T, P11182”, the abundance fitness was -0.119 ± 0.047. For “Lipoamide acyltransferase component of branched-chain alpha-keto acid dehydrogenase complex, mitochondrial E190W, P11182”, the abundance fitness was -0.192 ± 0.046. In the case of “Lipoamide acyltransferase component of branched-chain alpha-keto acid dehydrogenase complex, mitochondrial E190Y, P11182”, the abundance fitness was -0.349 ± 0.05. For “Lipoamide acyltransferase component of branched-chain alpha-keto acid dehydrogenase complex, mitochondrial E203A, P11182” the value was -0.041 ± 0.042; for “Lipoamide acyltransferase component of branched-chain alpha-keto acid dehydrogenase complex, mitochondrial E203C, P11182”, -0.053 ± 0.075.

On to “Lipoamide acyltransferase component of branched-chain alpha-keto acid dehydrogenase complex, mitochondrial E203D, P11182”, for which the abundance fitness is -0.089 ± 0.059. For “Lipoamide acyltransferase component of branched-chain alpha-keto acid dehydrogenase complex, mitochondrial E203F, P11182” the value was -0.409 ± 0.14; for “Lipoamide acyltransferase component of branched-chain alpha-keto acid dehydrogenase complex, mitochondrial E203G, P11182”, -0.089 ± 0.04. The value for “Lipoamide acyltransferase component of branched-chain alpha-keto acid dehydrogenase complex, mitochondrial E203H, P11182” was -0.124 ± 0.059; that for “Lipoamide acyltransferase component of branched-chain alpha-keto acid dehydrogenase complex, mitochondrial E203K, P11182” was -0.027 ± 0.055. The value for “Lipoamide acyltransferase component of branched-chain alpha-keto acid dehydrogenase complex, mitochondrial E203L, P11182” was -0.176 ± 0.049; that for “Lipoamide acyltransferase component of branched-chain alpha-keto acid dehydrogenase complex, mitochondrial E203M, P11182” was -0.127 ± 0.06; that for “Lipoamide acyltransferase component of branched-chain alpha-keto acid dehydrogenase complex, mitochondrial E203P, P11182” was -0.173 ± 0.059. “Lipoamide acyltransferase component of branched-chain alpha-keto acid dehydrogenase complex, mitochondrial E203Q, P11182”: the abundance fitness was -0.104 ± 0.058. As to “Lipoamide acyltransferase component of branched-chain alpha-keto acid dehydrogenase complex, mitochondrial E203R, P11182”, the abundance fitness was 0.024 ± 0.037. For “Lipoamide acyltransferase component of branched-chain alpha-keto acid dehydrogenase complex, mitochondrial E203S, P11182” the value was -0.007 ± 0.067; for “Lipoamide acyltransferase component of branched-chain alpha-keto acid dehydrogenase complex, mitochondrial E203T, P11182”, -0.109 ± 0.087. Consider “Lipoamide acyltransferase component of branched-chain alpha-keto acid dehydrogenase complex, mitochondrial E203V, P11182”, for which the abundance fitness is -0.08 ± 0.042.

For the origin of these results see the Human Domainome abundance scans (Beltran et al. 2025).
